Consider seven substances from article PMC5566480.

Broadly, the IC50 is the concentration needed to halve the response being measured. Usually Kd stands for the concentration at which binding is half-saturated.

The target in assay [1] is Recombinant human Toll-like receptor 2 (rTLR2) (UniProt O60603). Briefly: ELISA; competition: synthesized peptides (1 μM, and dose-dependent for IC50) against the binding of rLipL32WT to rTLR2. Background: An ELISA detects its analyte on a solid surface through an enzyme-linked reagent.
Recombinant human Toll-like receptor 2 (rTLR2), sequence (O60603 21-784): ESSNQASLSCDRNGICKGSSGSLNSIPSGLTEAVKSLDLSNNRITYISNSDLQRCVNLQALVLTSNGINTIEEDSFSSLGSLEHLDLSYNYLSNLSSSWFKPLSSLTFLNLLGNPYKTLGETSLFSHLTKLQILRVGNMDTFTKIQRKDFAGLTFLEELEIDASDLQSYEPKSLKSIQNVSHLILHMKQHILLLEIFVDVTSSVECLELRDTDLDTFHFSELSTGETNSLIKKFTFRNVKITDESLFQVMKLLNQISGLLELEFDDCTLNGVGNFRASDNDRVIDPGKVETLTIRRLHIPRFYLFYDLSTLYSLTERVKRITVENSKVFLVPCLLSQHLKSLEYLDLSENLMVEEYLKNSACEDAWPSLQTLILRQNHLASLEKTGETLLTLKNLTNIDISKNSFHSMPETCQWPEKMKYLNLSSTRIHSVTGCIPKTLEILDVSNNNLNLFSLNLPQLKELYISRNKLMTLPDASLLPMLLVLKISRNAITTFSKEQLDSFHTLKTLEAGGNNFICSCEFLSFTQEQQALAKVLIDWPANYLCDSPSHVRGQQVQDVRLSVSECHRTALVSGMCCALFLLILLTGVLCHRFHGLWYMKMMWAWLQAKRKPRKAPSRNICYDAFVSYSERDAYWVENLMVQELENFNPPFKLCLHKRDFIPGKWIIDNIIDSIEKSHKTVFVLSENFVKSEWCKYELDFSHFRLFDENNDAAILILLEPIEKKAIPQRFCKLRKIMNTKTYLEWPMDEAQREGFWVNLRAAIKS
The target is the same in assay [2]. Briefly: ELISA; dose-dependent; rTLR2 coated, LipL32 variants 0 to 2 μM in PBS, 90 min at 37 °C, anti-His6 detection; in the presence of 1 µM Ca2+; Kd from a one-site fit.
Assay [3] has the same target. Briefly: ELISA; dose-dependent; rTLR2 coated, LipL32 variants 0 to 2 μM in PBS, 90 min at 37 °C, anti-His6 detection; in the presence of 1 µM EGTA; Kd from a one-site fit.
For assay [4] the target is unchanged. Briefly: AFM force spectroscopy; rTLR2 covalently fixed on mica, LipL32 or variant coupled to the AFM tip (glutaraldehyde); force-distance curves, maximum distribution force and binding frequency; anti-TLR2 antibody as neutralising control.
Assay [5] shares this target. Briefly: ELISA. The note with it: parent: est. 0.37; read off a plot.

For the substance “C25 peptide (248–272 residues of LipL32)”, in assay [1], the IC50 was 140 nM.

For N20 peptide (1–20 residues of LipL32), in assay [1], the IC50 was 90 nM.

Take N50 peptide (1–50 residues of LipL32): the IC50 in assay [1] turned out to be 70 nM.

On to “Recombinant LipL32 wild type, mature form (rLipL32; 21-272) (natural protein)”, for which the Kd was 130 nM in assay [2] and 450 nM in assay [3]. Also, the maximum distribution force (AFM) in assay [4] turned out to be 55.3 pN.

Consider “Recombinant LipL32 wild type, mature form (rLipL32; 21-272) L263S”, for which, in assay [5], the response amounted to 0.29 OD450nm.

Turning to rLipL32 D195A variant (natural protein), the Kd turned out to be 100 nM in assay [2] and 120 nM in assay [3].

As to rLipL32 D196A variant (natural protein), the Kd in assay [2] and in assay [3] was 160 nM in each case.
